Source: paper PMC5738438, “Dynamic intramolecular regulation of the histone chaperone nucleoplasmin controls histone binding and release” (Nature Communications, 2017)

B1: A2 peptide (residues 119–145) (peptide)
chain: MEEDYSWAEEEDEGEEEEEEEEDPESP
B2: Npm core+A2 truncation (1–145) (domain or fragment)
chain: ASTASNTSKVEKPVSLIWGCELNEQNKTFAFKIEDEEEKCEHQLALRTVCLGDKAKDEFHIVEIVTQEEGKEKPVPIASLKPSILPMATMVGIELTPPVTFRLKAGSGPVYISGQHVAMEEDYSWAEEEDEGEEEEEEEEDPESP

Key:
[1] = target: H2A/H2B dimer (Xenopus, UniProt P06897 2-123; P02281 1-126); test: other fluorescence titration; equilibrium tryptophan (W125) fluorescence, 340/360 ratio; tail or peptide 0.5 µM, histones titrated; 20 mM Tris pH 7.6, 150 mM NaCl, 1 mM EDTA, 1 mM DTT, 0.01% NP-40; single-site model; conditions: both partners purified
[2] = target: the molecule itself; test: SEC-SAXS; complex of core+A2 and H2A/H2B purified by SEC, 4.83 mg/mL on Superdex 200 PC3.2/300, 5 mM DTT; Porod volume

Binder	Kd [1] [nM]	stoichiometry N [2]
B1	< 50	–
B2	–	5
